According to US20160326240A1 (published 2016):
Residue numbers refer to the chain shown, from its start.

T1: hRGMc-His (human, UniProt Q6ZVN8 36-400, limits assumed)
T1 construct: also called human RGMc; not shown: His tag
T1 sequence (looked up): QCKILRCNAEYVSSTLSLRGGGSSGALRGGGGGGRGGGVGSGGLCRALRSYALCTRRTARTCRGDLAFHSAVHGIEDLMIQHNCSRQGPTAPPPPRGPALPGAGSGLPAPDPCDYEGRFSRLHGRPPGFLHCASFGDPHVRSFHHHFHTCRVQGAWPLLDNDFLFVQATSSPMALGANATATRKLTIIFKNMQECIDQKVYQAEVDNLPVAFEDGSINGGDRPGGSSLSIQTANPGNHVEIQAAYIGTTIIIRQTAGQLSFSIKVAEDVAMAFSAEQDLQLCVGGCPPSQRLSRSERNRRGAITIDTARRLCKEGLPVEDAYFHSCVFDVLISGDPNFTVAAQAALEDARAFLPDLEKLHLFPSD

T2: human RGMc (human, UniProt Q6ZVN8 36-400, limits assumed)
T2 construct: ELISA antigen for the yeast-derived antibodies; a human RGMc-Fc was used for negative selection but the ELISA antigen is not specified
T2 sequence (looked up): T1 sequence (looked up)

T3: hRGMa-His (human, UniProt Q96B86 48-422, limits assumed)
T3 construct: also called human RGMa (BIAcore); not shown: His tag
T3 sequence: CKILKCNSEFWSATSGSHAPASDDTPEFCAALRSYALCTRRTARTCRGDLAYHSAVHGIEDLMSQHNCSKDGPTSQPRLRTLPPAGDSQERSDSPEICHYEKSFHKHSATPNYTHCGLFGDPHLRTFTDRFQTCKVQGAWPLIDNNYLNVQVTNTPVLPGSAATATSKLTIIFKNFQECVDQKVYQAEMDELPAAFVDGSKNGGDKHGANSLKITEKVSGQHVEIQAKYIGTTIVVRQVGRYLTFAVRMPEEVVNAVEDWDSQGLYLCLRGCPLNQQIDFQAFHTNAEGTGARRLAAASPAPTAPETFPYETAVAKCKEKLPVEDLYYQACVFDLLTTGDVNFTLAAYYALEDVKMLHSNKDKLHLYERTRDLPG

T4: Cyno RGMa-His (cynomolgus monkey, UniProt Q9N0A6 54-431, limits assumed)
T4 construct: also called cynomolgus (cyno) monkey RGMa (BIAcore); not shown: His tag
T4 sequence (looked up): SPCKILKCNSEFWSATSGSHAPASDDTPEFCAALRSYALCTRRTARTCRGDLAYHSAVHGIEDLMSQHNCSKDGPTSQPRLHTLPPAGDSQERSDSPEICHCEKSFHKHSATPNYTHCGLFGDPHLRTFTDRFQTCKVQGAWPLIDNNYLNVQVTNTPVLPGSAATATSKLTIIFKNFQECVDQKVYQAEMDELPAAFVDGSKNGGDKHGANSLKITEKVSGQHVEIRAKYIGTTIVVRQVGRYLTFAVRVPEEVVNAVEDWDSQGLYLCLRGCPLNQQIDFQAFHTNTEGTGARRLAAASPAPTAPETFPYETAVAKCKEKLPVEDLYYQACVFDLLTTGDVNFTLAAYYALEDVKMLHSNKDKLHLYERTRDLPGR

B1: AE12-5 (antibody, V domains shown)
VH: EVQLVQSGAEVKKPGASVKVSCKVSGHSLSELTIHWVRQAPGKGLEWMGGFDPEDGRGTYAPNFRGRVTMTEDTSTDTAYMELSGLRSEDAAVYYCATLLGEYDSYFDLWGRGTLVTVSS
VL: DVVMTQSPDFQSVTPEDKVTITCRASQSIGSCLHWYQQKPDQSPKLLIKYASQSISGVPSRFSGSGSGTDFTLTINSLEAEDAATYYCHQSSSLPYTFGQGTKLEIK
notes: kappa light chain
B2: AE12-3 (antibody, V domains shown)
VH: EVQLVESGGGLVQPGRSLRLSCAASGFTFDDYAMHWVRQAPGKGLEWVAVISYDGSNKYYADSVKGRFTISRDNSKNTLYLQMNSLRAEDTAVYYCARERVYSSGKEGYYYGMDVWGQGTMVTVSS
VL: QSGLTQPPSVSAAPGQRVTISCTGSGSNIGAGYGVHWYQQLPATAPKILIYGDYNRPSGVPDRFSGSRSGTSASLTITGLQAEDEADYYCQSYDNSLRGVLFGGGTKLTVL
notes: lambda light chain
B3: AE12-15 (antibody, V domains shown)
VH: EVQLVQSGAEVKEPGASVKVSCKASGYTFTDYYIQWVRQAPGHGLEWMGWINPKTGGTNYLQKFQGRVTMTRDTSTRTAYMELSSLRSDDTAFYYCVREDMNTVLATSWFDPWGQGTLVTVSS
VL: SYELTQPPSVSVSPGQTARITCSGNQLGHKFASWYQQKPGQSPVVVIYEDKKRPSGIPERFSGSNSGNTATLTISGTQAMDEADYYCQVWDVITDHYVFGTGTKVTVLG
notes: lambda light chain
B4: AE12-1-F (antibody, V domains shown)
VH: EVQLVQSGAEVKKPGASVKVSCKASGYTFTSHGISWVRQAPGQGLDWMGWISPYSGNTNYAQKLQGRVTMTTDTSTSTAYMELSSLRSEDTAVYYCARVGSGPYYYMDVWGQGTLVTVSS
VL: QSALTQPRSVSGSPGQSVTISCTGTSSSVGDSIYVSWYQQHPGKAPKLMLYDVTKRPSGVPDRFSGSKSGNTASLTISGLQAEDEADYYCFSYAGTDTLFGGGTKVTVL
notes: AE12-1 variant, Cys of VL CDR-L3 replaced; IgG
B5: AE12-1-H (antibody, V domains shown)
VH: B4 VH
VL: B4 VL with F91H
notes: AE12-1 variant; IgG
B6: AE12-1-Y (antibody, V domains shown)
VH: B4 VH
VL: B4 VL with F91Y
notes: AE12-1 variant; IgG
B7: AE12-1-K (antibody, V domains shown)
VH: B4 VH
VL: B4 VL with F91K
notes: AE12-1 variant; IgG
B8: AE12-1-I (antibody, V domains shown)
VH: B4 VH
VL: B4 VL with F91I
notes: AE12-1 variant; IgG
B9: AE12-1-V (antibody, V domains shown)
VH: B4 VH
VL: B4 VL with F91V
notes: AE12-1 variant; read as AE12-1-V from the order of the variants; IgG
B10: AE12-1-L (antibody, V domains shown)
VH: B4 VH
VL: B4 VL with F91L
notes: AE12-1 variant; IgG; also called AE-12-L
B11: AE12-13 (antibody, V domains shown)
VH: EVQLQESGAGLLKPSETLSLTCAVYGGSFSGYYWSWIRQPPGKGLEWIGEINHSGSTNYNPSLKSRVTISVDTSKNQFSLKLSSVTAADTAVYYCARDDGAGVFDLWGRGTLVTVSS
VL: DIQLTQSPSSLSASVGDGVTITCQASQDISNYLNWYQQKPGKAPKLLIYDASNLETGVPSRFSGSGSGTFFTLTINNLQPEDFATYYCQQSGNTPWTFGQGTKVEINR
notes: kappa light chain
B12: AE12-8 (antibody, V domains shown)
VH: EVQLLESGGGLVKPGGSLRLSCAASGFTFDDYAMHWVRQAPGKGLEWVSLISWDGGSTYYADSVKGRFTISRDNSKNSLYLQMNSLRAEDTALYYCAKDIPKVGGYSYGYGALGYWGQGTPVTVSS
VL: SYELTQPPSVSVAPGQTARITCGGNNIGDISVHWYQQKSGQAPMLVVHDDSDRPSGIPERFSGSNSGSSATLTISRVEAGDEADYHCQVWDSGSGHHVFGTGTKVTVL
notes: lambda light chain
B13: AE12-23 (antibody, V domains shown)
VH: EVQLQESGPGLVKPSETLSLTCTVSGGSISGYYWSWIRQSPGKGLEWIGEIFHTGRTYYNPSLRSRLTISVDTSKNQFSLKLSSLTAADTAVYYCARDSAFGSFDYWGQGTLVTVSS
VL: DIRVTQSPSSLSASVGDRVTITCQANEDISIYLNWYQQRPGKAPKLLIYDASNLETGVPSRFSGSGSGTDFTFTISSLQPEDFATYYCQQYHTYPFTFGGGTKVDIKR
notes: kappa light chain
B14: AE12-7 (antibody, V domains shown)
VH: EVQLVESGGGLVQPGGSLRLSCAASGFTSSSYAMTWVRQAPGKGLEWVSGISGSGESTYYADSVKGRFTISRDNSKNTLYLQMNSLRVEDTAIYYCARQGYGAHDYWGQGTLVTVSS
VL: not shown
notes: lambda light chain
B15: AE12-2 (antibody, V domains shown)
VH: EVQLVQSGAEVKKPGASVKVSCKASGYTFTSYDINWVRQATGQGLEWMGWMNPNSGNTGYAQKFQGRVTMTRNTSISTAYMELSSLRSEDTAVYYCARSTSLSVWGQGTLVTVSS
VL: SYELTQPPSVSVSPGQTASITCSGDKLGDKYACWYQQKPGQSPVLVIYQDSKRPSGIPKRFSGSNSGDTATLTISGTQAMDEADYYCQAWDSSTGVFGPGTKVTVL
notes: lambda light chain

Assays:
[1] = molecular target: T1, hRGMc-His; experiment: direct binding ELISA (hRGMc-His)
[2] = molecular target: T2, human RGMc; experiment: ELISA
[3] = molecular target: T3, hRGMa-His; experiment: BIAcore
[4] = molecular target: T3, hRGMa-His; experiment: BIAcore; remark: listed apart in the source
[5] = molecular target: T4, Cyno RGMa-His; experiment: BIAcore
[6] = molecular target: T1, hRGMc-His; experiment: BIAcore binding
[7] = molecular target: T1, hRGMc-His; experiment: hRGMc-His ELISA

Binder	binding result [1]	binding result [2]	fold increased affinity vs parental AE12-1 [3]	Kd [4]	koff [4]	kon [4]	Kd [5]	koff [5]	kon [5]	binding result [6]	binding result [7]
B1	no binding (tested: 100 nM)										
B2	no binding (tested: 100 nM)										
B3		binds									
B4			5 fold	1.4 nM	3.9e-05 s⁻¹	27000 M⁻¹ s⁻¹	5.4 nM	0.00025 s⁻¹	44000 M⁻¹ s⁻¹	no binding	
B5				3.8 nM	0.00012 s⁻¹	32000 M⁻¹ s⁻¹	13.4 nM	0.00063 s⁻¹	47000 M⁻¹ s⁻¹	no binding	
B6			≥ 10 fold	0.6 nM	1.3e-05 s⁻¹	22000 M⁻¹ s⁻¹	4.9 nM	0.0002 s⁻¹	40000 M⁻¹ s⁻¹	no binding	
B7				8.8 nM	0.0003 s⁻¹	34000 M⁻¹ s⁻¹	9.3 nM	0.00047 s⁻¹	51000 M⁻¹ s⁻¹	no binding	
B8				4.5 nM	0.00013 s⁻¹	30000 M⁻¹ s⁻¹	8.9 nM	0.00087 s⁻¹	99000 M⁻¹ s⁻¹	no binding	
B9				5.9 nM	0.00015 s⁻¹	25000 M⁻¹ s⁻¹	9.2 nM	0.00099 s⁻¹	110000 M⁻¹ s⁻¹	no binding	
B10				6.6 nM	0.00025 s⁻¹	38000 M⁻¹ s⁻¹	10.1 nM	0.00067 s⁻¹	62000 M⁻¹ s⁻¹	no binding	
B11		binds									
B12											binds
B13		binds									
B14											binds
B15	no binding (tested: 100 nM)										
